The results in this text go back to the DeepSol protein solubility set.

This data set is described as follows: soluble on expression in E. coli; label from the status in PepcDB or PDB records.
In the case of “MSPLASRALSFLGALSLLTFAATPVLAESTPTAAPPQFAVESPKAASSLLLSVAHAGKRLVAVGDRGHILLSDDDGKTWTQAKVPTRQLLTSVFFVNERKGWAVGHDAQILVSDDAGSTWARQFEDLGREAPLLDIWFADEQHGLAVGAYGALLETRDGGQHWEDVSERLDNEDQFHLNAIAAVKDNGLLVVGEAGSLFRSKDWGATWEKLEGPYEGSLFGAIGTADAGGVLVYGLRGHLFRSADFGDSWEEIPLKAASGDLEFGLSDGALLADGRIVVVGHGGSVLESTDGGRSFSVFNRPDRLSLAGVSATGDGHLILVGQGGVHLAAANGAALEQQQLEHHHHHH”, the “soluble on expression in E. coli” value is on record as “not soluble”. In the case of “MSPSPLISHRAASADLAGMVRQARQRILLQGNVPGFDVARQIELLHGLAESELGRFLLLYRGLNAEWTHRLVTHQPGSGALAPLERVFYERLPAVLATRERHGHFRRALQRHLRPGCVVASVPCGWMSELLALDYSACPGVQLVGIDYDPEALDGATRLAAGHALAGQITLHRQDAWKLDTREGYDLLTSNGLNIYEPDDARVTELYRRFWQALKPGGALVTSFLTPPPALSPDSPWDMQAIDPHDLQLQQLVFTRLIQPRWNALRTHAQTRAQLEEAGFTDLRFEDDRARLFPTVIARKPA” it was “soluble”.

As to “MSPVHWPIHPKEYKWTVKPSPGPHAIENSLPLMIIVRDILKVADNAREARKIINSGEVLVDGRPRKNYKFPVGFMDVVSIPRTGDVYRVLPDERGRLVLHPIDEENAGFKLCKIVNKTTIKGGRTQLNLHDGRNYLSDDEFRVGDVVKLSIPEQEILERIPFEKDSLGLVTGGRHTGEIGKIKKINITRSSMPNTAVIETGAGKTFLTLKDYVFVIGKDESVISLPGGKLEHHHHHH”, the “soluble on expression in E. coli” value was “not soluble”.

“MSQDNLSAVLYGVDDLRLEQVPIPKPGPNQVLVKVHTVGICGSDVHYWTHGAIGPFVVKEPMIVGHETSGIVSEVGNEVKHLKVGDRIAMEPGLPCKLCEHCKTGRYNLCPEMRFFATPPVHGTLSRFVVHDADFCFKLPDNLSFEDGALIEPLSVAIHACRRGNVQMGHRVLVLGAGPIGVLNLITAKAVGAGKVVITDLDDGRLALAKKLGADATINVKGKSLDAVKSEIITALGDQQPDVCIECTGAQPSIETAITTTKSGGVIVLVGLGADRVEIPIIESATREVDMRGIFRYVNCYPTAIELISSGKLNLSGLTRAHYKLEETQEAFKRTQKADVIKVFIQC”: the “soluble on expression in E. coli” value is recorded as “not soluble”.

As for “MSQEQLVAVNELNENLGKVLIKIARDSIANKLGILKINLEDYLSSLNDPILNKKGLAFVTLETYYGNSTSLRGCIGYVEAVAPLKEIVSKAAIAAAFSDPRFPPLSKGEFDNIIIEVTVLTKPQEIDVENRWELPKKIKVGEDGLIVEYGILYSGLLLPQVPMEYCWDEETFLAETCIKAGLEPDCWLNNKVKIKKFQGIIFREEKPKSEKILIIKPSEVKCKKEEISLL”, the “soluble on expression in E. coli” value was “soluble”. As to “MSQFTHYPPVSDKQLGFFIDSSRCSGCKACQVACKDKNNLEVGRRFRRVYEVKGGSFIPTGQGGVSNNVFAYTLSISCNHCADPVCTKNCPTTAMHKRPGDGIVRVDTDKCVGCGYCAWSCPYGAPQLNEQTGQMSKCDMCVDLLAKGEPPVCVATCPLEAIKFGPIDELRAKYGSVCDVNGLPDSSITKPNLVVKAHQGAEKEGKRHA”, the “soluble on expression in E. coli” value is “not soluble”. The entry for “MSQKQEEENPAEETGEEKQDTQEKEGILPERAEEAKLKAKYPSLGQKPGGSDFLMKRLQKGQKYFDSGDYNMAKAKMKNKQLPSAGPDKNLVTGDHIPTPQDLPQRKSSLVTSKLAGGQVE” is “soluble”. The entry for “MSQLFVRTGITFDSSQQALAHIGKEMLAKGVVHDSYPQALVEREASFPTGIALERHAVAIPHCEAVHAKSPAIYLIRPDKPVMFQQADDDEEIAVSLIIALIVENPAAQLKLLRRLFSELQNPSTLDALLSAPDAELAIRFQETILEPEQCVQV” is “not soluble”; for “MSQNSDTFDSGLQMEVHKMAEADNSSVQQKFDAIRDYIGRKETTIILCEHDDSRKIKLTLNKQRMESSMFLTEMPDGGIQEKTKFHRNGLAVCSYNAFDEVDLPLADSYIFYGLPSNVEAFPRMLHGIEKSAHKENKIVFIDIVVSILEKIQIKVVSFELYNRKCTVPTWVAELVITYCAPIEEQQQRIEEIRRTRASVPVAISDAANGSAEMVPSNTTGSSGSPMSTAPVPAAKKEKVQYESIRQIRPNAQGRYFVPARMINMDIEMSNDEYSPDESENDENEYDYENAARYDDGYDEGHEYCQ” it is “not soluble”.

In the case of “MSQPAYRLFNVELKRREQLSPALTRFVFGGPEVAEMKTLAADQRIKIFFPDASGQPPSLPGGSEWYQAYRSVEPARRPPMRTYTIRALRAEQEEVDVEFVLHGENGPASAWATHARIGDRLQLAAPNRQYGDDPGGYEWKPPAGVRHILLIADETALPAVAGILEELAGETEPPVVEAFLEVPGEADILDLPAIPAARLHWLPRHQAGIHSRNGERMIEAARQARLPEREVAGGAAQELEDIDIDEEILWELASPESGSFYAWVAGESAAVMAIRRYLVQERGIDKRHLTLMGYWRLGKVFD”, the “soluble on expression in E. coli” value was “not soluble”. The entry for “MSQQIQMKSVIDVKFPTHLFSPLATSSPKLTRMRAPIRDQSWSSCSDDSSGNLTSQAITGVDDSHIEATKLENESSTSSCSMHTALEFVNSSIFERVRSYSEVITREELQSAIFERKLTETDCSKEEAEMYSIIVTERILWTAGRTWTGTIQVKTKDLLNDYVRYACEDWYMKHTGQLCAVELNHIGKWDEIFDSNAIAIYCYETGIPTIIVDRIFSSNLVRRSTGNYLDTKEVTWLIFAMIGTDENQSIEYWFRVLDVQSTGILQLDDLRMFYDAITKFLVNNNVQSLPFENAIAQFRDILGTDKWNLQSFKKNSQLAFRVINGFVCALRFLEQEICEKTNTERQDDEEFGMVRTRWQRLIDHKFDDYYAQSSTSSSGSFNINNEPINPV” is “not soluble”; for “MSQSEEQNKDIPSSSNFGNPANNGVNVPDAPARRLFDNTSDESDVSLDNDDKTGAETDGSSSSRGCLKSERSRKDHASTSSTRTVRAPQQVSWSFGAKPATPHSQPPAGLKKVPAYSATSSSSQAGPSASTSTARKSSLVGGRGSASSSGHTSPSPSESPARNAGCSSSGESNPDRSLTTPPLAPALKHSAKDGHYRGQRSMSLGGPAHEMLMSQLGGRQGNTVDCSPGEGDKVCLLVDQTRFLVSQRLLTSKPDTMLGRMFSMRASCGDLGADLVSPNERDEFEVADGMTSSCFRAILDYYQSGTMRCPSSVSVSELREACDYLLVPFNAQTVKCQNLHALLHELSNEGAREQFSQFLEEIILPQLVASTEHGERECHLVVLLDDDVVDWDDEYPPQMGEETTHVVYSTHLYKFFKYAENRDCAKQVLKERGLKKIRLGMEGYPTHKEKIKKRFNKAEVIYNYVQRPFVHCSWEKEEARSRHVDFACPIVKSKSNPSLAAAASDPLPQPAPLQQQHRVAVFGEAAPLAAHNRVDDQHFVQPLNQLMQQQAQLPQNNAMLGVNVQQQQHNHPLHSPPVNFQRNDREEE” it is “soluble”; for “MSQTVHFQGNPVTVANVIPQAGSKAQAFTLVAKDLSDVSLSQYAGKRKVLNIFPSIDTGVCAASVRKFNQLATEVENTVVLCVSADLPFAQSRFCGAEGLSNVITLSTLRNNEFLKNYGVEIVDGPLKGLAARAVIVLDENDNVIFSQLVDEITHEPDYDAALNVLKA” it is “not soluble”.

Consider “MSQYSLQVGLTPEGPCSYLPKQKERLAVVMEQELHTALGYQALIRLGFRRSGETIYKPMCEHCDACKPLRINANQFKPSKSQKRLLNKLSSFRWELKSEMDGNWFDLYERYINTRHKTGSMYPANQKQFFEFSHSHWLTNQFLHIYENETLIAIAVSDVLSDSISAMYTFFEPEHPLSLGTISVLIQLKLCKELSKEWLYPGYQIDDCPAMKYKDQYKPNQKLVNMVWQGLEHHHHHH”, for which the “soluble on expression in E. coli” value was “soluble”. The entry for “MSRDPTYTINEHDLSFADGRFYVTFKADKSSETVRLNSSCLGNTIIKKLQVEDDNTMHDFVKPKVTTQQAFGLAQQVKELDLQLKDPKSDLWGKIKFNNKAMLVEYANKEMSSAIAQSAEQILLQVKSIDDERYSKFEQTLNGIKQTVKSESVESARTQLASMFDSRISGLDGKYSRLSQTIDSLSSRLDDGVGNYSTLSQKVSGIDLRVSNAANDVSRLSQTAQGLQSQITNANQNYSSLSQTVQGLQTTVRDNQSNATSRINQLSDLISTKVSKGDVETTIAQSYDKIAFAIRDKLPASKMSGSEIISAINLDRSGVKITGKNITLDGNSYISNAVIKDAHIANMDAGKINTGYLNANRIATEAITGEKIKMDYAFFNKLTANEGYFRTLFAKDIFATSVQSVTLSASKITGGVLAATNGASQWDLNNANMTFNRDATINFNSKNNALVRKDGTHTAFVHFSNATPKGYRGSALYASIGITSSGDGIDSASSGRFAGLRSFRYATGYNHTAAVDQTELYGDNVLIADDFNINRGFKFRPDKMEKVLDMNDLYAAVVALGRCWGHLANVGWNT” is “not soluble”. The entry for “MSRFPRRFIDDSSMEDAGISLCPSIHYRPINPNDLDRLEQIHRDIFPIKYESEFFQSVVNGVDIVSWAAVDRSRPDDHSDELIGFVTAKFVLAKDSEIDDLIHYDSSKGEETLIYILTLGVVETYRNRGIAMSLISEVIKYASGLSVCRGVYLHVIAHNNAAICLYKRLMFRCVRRLHGFYLINRHHFDAFLFVYFINGSRTPCSPLEVAMFVVNYMKSGIKSVASKLANKDEKGLKWLFCKDTDCV” is “soluble”. In the case of “MSRGSGILPDESMFAEFKRQCLSTENWVNKYDKNDMEVWVEQAPLSASINNKGNYSKVHKIRCQINIKDVSAATMYDVLHDGQYRKTWDPTMLESFDIARLAHNADVGYYSWICPKPLKNRDVVTLRSWQASENEYVIINFSVKHPKYPPRKDLVRAVSLMTGYLIKPTGPQSCIFTYLSQADPKGSLPKWVVNKASQVLAPKVLRSAHKAGQNYPAWKAANSPDHKPWLYPIQSELAMMDPAELSIQRGDSLENVDESSTRDAQENEDSS”, the “soluble on expression in E. coli” value is listed as “not soluble”. In the case of “MSRGVKRVTAITNREREAVLRIEFPNVDVTDIDFDLFQARESTDKPLDVAAAIAYRLLLGSGLPQKFGCSDEVLLNFILQCRKKYRNVPYHNFYHVVDVCQTIYTFLYRGNVYEKLTELECFVLLITALVHDLDHMGLNNSFYLKTESPLGILSSASGNKSVLEVHHCNLAVEILSDPESDVFGGLEGAERTLAFRSMIDCVLATDMARHSEFLEKYLEIMKTSYNVDDSDHRQMTMDVLMKAGDISNVTKPFDVSRQWAMAVTEEFYRQGDMEKERGVEVLPMFDRSKNMELAKGQIGFIDFVAAPFFQKIVDACLQGMQWTVDRTKSNRAQWERVLEARSTGAS” it was “soluble”; in that of “MSRIGRIPVAIPKGVDVKLGDNNTLTVKGQKGTLTKQFHKDMIIKVEGDKIIVQRPSDEKKHKALHGLTRTLINNMVIGVTQGYEKALEINGVGYRAQKQGKKLILTLGYSHPVEMEEPQGITVEVPAPNKIVVKGADKQAVGEFAAKIRSKREPEVYKGKGIKYEDEVIRRKEGKAGGKGKK”, “not soluble”. In the case of “MSRKFPSFIVDAFTTKSFAGNPAAVCLIPEVFKDQEYLKIAAEFNLSETAFPVPIGSTDFKTCSQFSLRWFTPKTEVPLCGHATLATSHVLFNEVGNVNKEIKFDTQSGVLIAKRDEKGNVEMNFPEYDLASVKFNDTPNPLQGIFSEFEAPSFLFEVIKCVVPTEMIIESVVYSSKSRKLIVIVDPETTKFELEAVRIDCSKMLEIHDGSFVRGLAISLRPSNPMAQGFVDSSDEPYDYACRYFAPWVGIDEDPATGSAQCVMGPFWSKMLGKNELYAFQAFPTRGAQFRIRLQDDRVILNGPSVTVLRGELALN” it was “not soluble”.
